Data on three molecules can be found in article doi:10.1101/2023.07.11.548556, “Skeletal progenitor LRP1 deficiency causes severe and persistent skeletal defects with WNT/planar cell polarity dysregulation” (bioRxiv, 2023).

Where only a bound is given, the exact number is not on record here.

First the molecules themselves.
B1: Wnt11 (ligand, UniProt O96014 25-354, looked up)
chain: IKWLALSKTPSALALNQTQHCKQLEGLVSAQVQLCRSNLELMHTVVHAAREVMKACRRAFADMRWNCSSIELAPNYLLDLERGTRESAFVYALSAAAISHAIARACTSGDLPGCSCGPVPGEPPGPGNRWGGCADNLSYGLLMGAKFSDAPMKVKKTGSQANKLMRLHNSEVGRQALRASLEMKCKCHGVSGSCSIRTCWKGLQELQDVAADLKTRYLSATKVVHRPMGTRKHLVPKDLDIRPVKDSELVYLQSSPDFCMKNEKVGSHGTQDRQCNKTSNGSDSCDLMCCGRGYNPYTDRVVERCHCKYHWCCYVTCRRCERTVERYVCK
notes: Wnt11, purified protein; source: purified
B2: Wnt3a (ligand, UniProt P56704 19-352, looked up)
chain: SYPIWWSLAVGPQYSSLGSQPILCASIPGLVPKQLRFCRNYVEIMPSVAEGIKIGIQECQHQFRGRRWNCTTVHDSLAIFGPVLDKATRESAFVHAIASAGVAFAVTRSCAEGTAAICGCSSRHQGSPGKGWKWGGCSEDIEFGGMVSREFADARENRPDARSAMNRHNNEAGRQAIASHMHLKCKCHGLSGSCEVKTCWWSQPDFRAIGDFLKDKYDSASEMVVEKHRESRGWVETLRPRYTYFKVPTERDLVYYEASPNFCEPNPETGSFGTRDRTCNVSSHGIDGCDLLCCGRGHNARAERRREKCRCVFHWCCYVSCQECTRVYDVHTCK
notes: Wnt3a, purified protein; source: purified
B3: Wnt5a (ligand, UniProt P41221 62-380, looked up)
chain: IIGAQPLCSQLAGLSQGQKKLCHLYQDHMQYIGEGAKTGIKECQYQFRHRRWNCSTVDNTSVFGRVMQIGSRETAFTYAVSAAGVVNAMSRACREGELSTCGCSRAARPKDLPRDWLWGGCGDNIDYGYRFAKEFVDARERERIHAKGSYESARILMNLHNNEAGRRTVYNLADVACKCHGVSGSCSLKTCWLQLADFRKVGDALKEKYDSAAAMRLNSRGKLVQVNSRFNSPTTQDLVYIDPSPDYCVRNESTGSLGTQGRLCNKTSEGMDGCELMCCGRGYDQFKTVQTERCHCKFHWCCYVKCKKCTEIVDQFVCK
notes: Wnt5a, purified protein; source: purified

T1 sequence (Q07954 20-4544): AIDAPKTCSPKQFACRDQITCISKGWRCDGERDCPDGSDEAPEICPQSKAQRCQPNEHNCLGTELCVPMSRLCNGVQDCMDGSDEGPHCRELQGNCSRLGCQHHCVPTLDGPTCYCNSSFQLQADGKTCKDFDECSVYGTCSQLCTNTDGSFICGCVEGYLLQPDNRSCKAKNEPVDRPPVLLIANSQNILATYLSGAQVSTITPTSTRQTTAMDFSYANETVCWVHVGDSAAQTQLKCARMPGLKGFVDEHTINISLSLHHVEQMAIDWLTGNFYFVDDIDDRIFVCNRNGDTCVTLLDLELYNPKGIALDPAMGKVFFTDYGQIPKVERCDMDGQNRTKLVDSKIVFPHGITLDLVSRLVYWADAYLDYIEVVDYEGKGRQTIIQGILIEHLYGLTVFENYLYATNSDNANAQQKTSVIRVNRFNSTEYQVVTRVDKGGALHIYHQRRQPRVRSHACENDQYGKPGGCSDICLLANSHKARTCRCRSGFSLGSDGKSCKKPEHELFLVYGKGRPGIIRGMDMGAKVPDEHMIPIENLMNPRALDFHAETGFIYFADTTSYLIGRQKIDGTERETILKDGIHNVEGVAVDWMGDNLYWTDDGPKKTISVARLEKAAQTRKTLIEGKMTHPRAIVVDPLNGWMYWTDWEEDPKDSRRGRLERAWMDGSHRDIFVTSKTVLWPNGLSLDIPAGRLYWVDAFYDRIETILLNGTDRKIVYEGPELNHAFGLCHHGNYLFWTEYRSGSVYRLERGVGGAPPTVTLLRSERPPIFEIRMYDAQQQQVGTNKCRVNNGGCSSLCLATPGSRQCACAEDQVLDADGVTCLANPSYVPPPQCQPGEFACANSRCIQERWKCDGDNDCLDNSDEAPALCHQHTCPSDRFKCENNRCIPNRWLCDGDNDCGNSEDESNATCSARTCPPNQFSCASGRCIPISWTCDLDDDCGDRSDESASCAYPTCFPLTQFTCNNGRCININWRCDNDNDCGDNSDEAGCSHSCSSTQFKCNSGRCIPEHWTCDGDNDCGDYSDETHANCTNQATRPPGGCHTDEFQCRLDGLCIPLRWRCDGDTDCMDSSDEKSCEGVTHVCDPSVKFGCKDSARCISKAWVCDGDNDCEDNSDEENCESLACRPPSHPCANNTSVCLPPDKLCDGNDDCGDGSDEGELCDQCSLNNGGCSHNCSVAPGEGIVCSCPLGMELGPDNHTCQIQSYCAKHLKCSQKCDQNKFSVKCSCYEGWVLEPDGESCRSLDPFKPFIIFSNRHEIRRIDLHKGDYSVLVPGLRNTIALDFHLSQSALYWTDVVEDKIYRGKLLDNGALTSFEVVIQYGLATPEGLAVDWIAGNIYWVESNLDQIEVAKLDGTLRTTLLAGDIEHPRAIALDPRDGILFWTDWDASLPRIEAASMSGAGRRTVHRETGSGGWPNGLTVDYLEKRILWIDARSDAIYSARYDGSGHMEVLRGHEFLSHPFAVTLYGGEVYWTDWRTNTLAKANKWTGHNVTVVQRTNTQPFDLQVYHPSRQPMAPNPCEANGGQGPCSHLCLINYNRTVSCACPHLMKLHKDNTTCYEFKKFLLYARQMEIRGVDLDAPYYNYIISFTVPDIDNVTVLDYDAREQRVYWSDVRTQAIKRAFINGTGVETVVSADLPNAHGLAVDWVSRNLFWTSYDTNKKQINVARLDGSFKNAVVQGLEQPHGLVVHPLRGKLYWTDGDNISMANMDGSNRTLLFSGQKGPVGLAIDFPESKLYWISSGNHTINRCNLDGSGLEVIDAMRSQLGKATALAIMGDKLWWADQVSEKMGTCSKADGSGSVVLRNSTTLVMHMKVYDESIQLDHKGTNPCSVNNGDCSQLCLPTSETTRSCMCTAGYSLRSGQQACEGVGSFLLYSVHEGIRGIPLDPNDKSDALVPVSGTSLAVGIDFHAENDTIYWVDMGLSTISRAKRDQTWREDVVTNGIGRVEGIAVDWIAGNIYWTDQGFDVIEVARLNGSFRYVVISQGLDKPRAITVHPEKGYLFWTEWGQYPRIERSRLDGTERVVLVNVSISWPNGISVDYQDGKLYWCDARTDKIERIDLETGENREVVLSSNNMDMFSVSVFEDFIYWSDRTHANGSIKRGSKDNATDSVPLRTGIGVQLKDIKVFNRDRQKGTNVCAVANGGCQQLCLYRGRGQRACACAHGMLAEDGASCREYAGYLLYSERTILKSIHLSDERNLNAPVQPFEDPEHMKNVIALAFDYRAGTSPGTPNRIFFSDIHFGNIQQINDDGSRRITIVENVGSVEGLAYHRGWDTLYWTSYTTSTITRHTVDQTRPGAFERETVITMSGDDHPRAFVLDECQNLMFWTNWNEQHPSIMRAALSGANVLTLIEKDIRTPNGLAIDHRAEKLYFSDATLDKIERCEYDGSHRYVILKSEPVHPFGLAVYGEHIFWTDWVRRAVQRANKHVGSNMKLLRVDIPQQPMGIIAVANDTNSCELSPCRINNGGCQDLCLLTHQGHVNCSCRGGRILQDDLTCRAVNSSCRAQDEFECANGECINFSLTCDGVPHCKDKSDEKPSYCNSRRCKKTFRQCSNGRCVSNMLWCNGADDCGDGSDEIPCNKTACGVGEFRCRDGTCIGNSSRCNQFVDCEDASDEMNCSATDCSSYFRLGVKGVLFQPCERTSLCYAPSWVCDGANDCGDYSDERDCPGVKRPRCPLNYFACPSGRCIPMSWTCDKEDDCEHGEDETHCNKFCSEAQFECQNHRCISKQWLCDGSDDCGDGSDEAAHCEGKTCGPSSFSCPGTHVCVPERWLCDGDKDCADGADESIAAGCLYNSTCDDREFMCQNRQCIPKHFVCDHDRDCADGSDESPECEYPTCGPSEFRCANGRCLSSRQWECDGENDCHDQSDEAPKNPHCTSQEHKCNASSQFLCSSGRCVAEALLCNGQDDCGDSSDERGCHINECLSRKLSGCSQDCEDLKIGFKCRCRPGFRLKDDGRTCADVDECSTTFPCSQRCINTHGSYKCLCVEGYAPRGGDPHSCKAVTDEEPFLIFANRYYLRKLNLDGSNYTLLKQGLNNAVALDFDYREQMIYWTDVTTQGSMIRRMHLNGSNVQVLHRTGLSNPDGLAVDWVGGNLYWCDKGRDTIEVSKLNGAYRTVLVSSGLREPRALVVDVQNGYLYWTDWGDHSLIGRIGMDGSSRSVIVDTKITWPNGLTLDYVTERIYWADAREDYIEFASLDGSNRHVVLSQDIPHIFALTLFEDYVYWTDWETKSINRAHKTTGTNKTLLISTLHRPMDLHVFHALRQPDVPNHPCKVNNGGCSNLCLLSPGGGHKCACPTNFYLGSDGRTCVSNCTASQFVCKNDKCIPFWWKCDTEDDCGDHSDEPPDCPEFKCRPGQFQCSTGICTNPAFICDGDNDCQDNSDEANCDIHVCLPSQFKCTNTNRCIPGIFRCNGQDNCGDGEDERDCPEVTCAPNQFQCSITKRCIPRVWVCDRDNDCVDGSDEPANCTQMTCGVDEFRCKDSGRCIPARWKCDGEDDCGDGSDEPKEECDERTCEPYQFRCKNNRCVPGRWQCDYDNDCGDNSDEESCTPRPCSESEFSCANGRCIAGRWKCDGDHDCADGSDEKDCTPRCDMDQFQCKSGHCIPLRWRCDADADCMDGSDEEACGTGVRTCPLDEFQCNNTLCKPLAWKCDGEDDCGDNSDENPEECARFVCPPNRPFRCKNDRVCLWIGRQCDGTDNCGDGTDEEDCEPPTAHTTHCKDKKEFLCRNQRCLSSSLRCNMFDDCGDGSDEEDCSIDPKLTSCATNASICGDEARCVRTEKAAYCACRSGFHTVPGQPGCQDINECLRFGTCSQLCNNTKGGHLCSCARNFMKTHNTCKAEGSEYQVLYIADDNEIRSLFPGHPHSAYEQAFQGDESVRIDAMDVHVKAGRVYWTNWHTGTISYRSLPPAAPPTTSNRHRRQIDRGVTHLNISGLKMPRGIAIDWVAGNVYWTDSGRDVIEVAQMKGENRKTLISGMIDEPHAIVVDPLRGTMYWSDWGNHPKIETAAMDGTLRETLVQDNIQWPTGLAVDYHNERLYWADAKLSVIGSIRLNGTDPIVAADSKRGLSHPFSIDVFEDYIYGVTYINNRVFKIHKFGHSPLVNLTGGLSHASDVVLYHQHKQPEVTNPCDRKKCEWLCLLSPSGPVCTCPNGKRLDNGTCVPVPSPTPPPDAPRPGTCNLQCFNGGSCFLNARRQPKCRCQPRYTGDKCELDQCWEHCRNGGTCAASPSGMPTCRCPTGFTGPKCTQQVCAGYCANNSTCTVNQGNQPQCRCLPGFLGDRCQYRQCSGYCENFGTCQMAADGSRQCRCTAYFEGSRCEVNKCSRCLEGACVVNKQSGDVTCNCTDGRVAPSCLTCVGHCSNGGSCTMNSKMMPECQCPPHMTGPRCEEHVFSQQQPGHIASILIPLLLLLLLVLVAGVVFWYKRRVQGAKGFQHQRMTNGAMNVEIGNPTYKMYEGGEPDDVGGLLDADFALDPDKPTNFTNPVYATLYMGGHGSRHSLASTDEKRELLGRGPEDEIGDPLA

This assay addresses T1, Low-density lipoprotein receptor-related protein 1 (LRP1), purified human full-length (human, UniProt Q07954 20-4544).
T1 construct: Low-density lipoprotein receptor-related protein 1 (LRP1), human, purified full-length protein coated on the plate; also called full-length LRP1; Full-length sLRP1; source: purified
As to the kind of experiment: ELISA; solid-phase binding assay; human full-length LRP1 (10 nM in 50 mM Tris-HCl pH 7.5, 150 mM NaCl, 10 mM CaCl2) coated on microtiter plates; 0-200 nM Wnt in 5% BSA blocking solution, 30 min at RT; bound Wnt detected with a specific anti-Wnt antibody; signal of uncoated wells subtracted; apparent constants (KD,app) extrapolated from a one-phase decay nonlinear fit. Conditions: both partners purified.
As for B1, the Kd was 42 nM.
Turning to B2, the Kd is more than 200 nM.
In the case of B3, the Kd is 31 nM.
